Assay: soluble on expression in E. coli; label from the status in PepcDB or PDB records
In the case of “MAHHHHHHMMSAAARKRRCQQARQREPAAPQQKGEASRHDDTAEPERKPLTGAVSPAINSAAEAPSATPPVLSSHFSLKPGLPTSPPLMHKRTATRCGSVDEDALFFQTYENVADMRFASLDEIAQSVVDLRQRVQQRMQHQRLLTDIEALHERHGSALLRSMPHVLNVLEAAAAVDDGAEGPSGRSGGGQFTMSPEQVYARMVRQIDEQRSGHEQHQRDPDNAEKVVGILHLRQLPVGRPIPPRIRQLRESAALAQVAASEEARRRSRLLPRESKDRSSSTTKRGVSVSAAVSIQFADPAAPLMASSTGGGRSSSLTTVMELRRWRPYLERRNRLSAALTRIFDATTLRAVYSYYRTCALLQRDAAVVRRLVPDRQQWSALPSIEELAVLDRRLEVMFEGRPSWDGRQGA”, the “soluble on expression in E. coli” value is reported as “not soluble”.
In the case of “MAHHHHHHMNAVKEADVVFLEAYTSFLINSNAEKLAGIYGKPVILADREMVESGAVLDDAKVKKVVLLVVGDVFGATTHSDLIVRCNRQGIESKIVHNASIINAVGCCGLQLYRFGQVISLCFWTETWRPDSWYERLQSNRAAGIHTLVLLDIKVKEISDENLARGRKIYEPPRYMTIRQAIEQILEVEGYKQGGAVAADGSTFAVGLARVGSESQQVVAGTMKDLLSVDFGAPLHSLVIAGDVHDCEQEHVDLFRMAGQ”, the “soluble on expression in E. coli” value is reported as “not soluble”.
With “MAHHHHHHMNDSISSPIKATCRDMALKSSLHSFTFSLKDFDIAGFLGDGAHGSVFLACERRTNFICVLKCISKSHLVKSTQEALLRKEIELQAHLKHPHIACMYTWFHTSSHVFFVMEYCSNGDLFTYLNENGPFCEKKVAEMLFEIIWAIRTCHDKRIAHLDLKPENVLVNHEEKCKLADFGLSAHIGSKHKKKGISHYRGTHDYWSPEQCARHQKKKQNFGEFDQKTDIWTLGILAFELKFGRPPFGSTNEERENVIMNRIQDYHWSQLFCEKVKQDLIDKLSPEFKDFLNLCLDKNPKKRPTAESLIQHPFIFIHNKNRSCIKSYATQPRGKQGPKLSHKGFNEQDGSFLTPIWFHNK” the “soluble on expression in E. coli” value was “soluble”.
For “MAHHHHHHMNFLGGSLRSGGGHRREKGFSAKNKVQQYHGDGSESIVLAGRPFRVLQKISDVPPPYMVTRQRSTKYGEGGSSYVYLVENTSHLPEFPRHLALKRSFFGVDQVMEAHKEVEIVSRIEDKNIVCVYHSEISRSEGRLGVSIAMEYCSNNLYHRIRSSAGTGIVTRLTEAEICHVMFAVTSAVGYLHAQQPPITHRDIRPENILINNKHAGPTAYKLTNFGNATTEAYQCETREEANMAIADIQMHTNPAFRAPEMADPWSKKRICEKTDMWSMGVLLYYMMYMSLPFDPSTTIVKDWALTFPSEATASYTPSLRVITEHLLDPDPCSRWDVFALINYMRFDEDCSRHLGTFCFTKTEWPEGWEEHDVKVLGRTPPPKAPPVSYNEPGHEQLDSRGLRGQERVHGHTNGHQPPDDRGNGRDSAVVDGAAVQEAMIVLGGDPADDDPAVAKYRHQIIMVQQEAWRRAKAAAGLRDSPPTEPQESSAAPAPTRANNEAQKDVFDDLFASASPTVFPTSQASPAMGPSAPPATHQPPEKDVFSASDLFSTSAPQLDPSYPVMNTYGQAPQQMAMGGWGSGAPVMGSGGYPMQQPQNQQQAPWGYGVSNANNYAPPLPPQQQQQQQLQPFTNFLPPLSGQQPGQQQSQQQETSQPRTARATAKRDPFADLFN”, the “soluble on expression in E. coli” value was “not soluble”.
With “MAHHHHHHMNFVFIYIVLISFFNKSRCDNELSVKGSLTVANLKISSKNNQENGILFVNEESEYKIGLNERSELIISKKKKPLVTIDEHENLNFFNLDLSVKILNIQGILKIMNVNQFQMFVHEDFSNSSNTKGWIGDQFFNYTSSCGGINLLGGYGKLSKGEIYKTFENIPSHSQIRIKCNFHFIDNWDNQTAYMKITTDEKEEKYYVWTDTHSQINKQNSINICGNTTGESKFFSIIDIIIPHNSNKLIIYFGTNIQKDEPNLISWGISNFQIYLI” the “soluble on expression in E. coli” value was “not soluble”.
For “MAHHHHHHMNPNQPPRRKTAFNEEFDVMQAIQEDRMAYHASIACHERCVHNYFFNNFYWREKTCMDNCLDKINQATVITNINYGKFEDVESKK”, the “soluble on expression in E. coli” value was “not soluble”.
For “MAHHHHHHMNTNGRSAYDMLARMSDEEDDDVPEDLELTFVPASKRREPASSHAVGHHAGNAVPSTLNSPTHSGPAVINPKPRAETVYEQERNAKVRQVLAEQQKTALGVVFSLDAFEAPSPGRYTLAGLQEATGTPAPSCSSAPYNREDQRRGFSQYRGRGGAEGGGRGGPGGGGGPRRYRMPNPNMSGEEQARYIRHRRNMAVIRNALREVDPETLEYMQVTQAPDQLPLNRNCEGFSKPYFSTDRGRGGVDAGGGRSTSSYRGRGGGGGMHGRGGRGFSPYSVGRGTGATRGDGLGRGAGGGCGRSAPFSPYS”, the “soluble on expression in E. coli” value was “not soluble”.
With “MAHHHHHHMPLPPVEDAPNSMARRHYLVERNRLRVKKYEPTRQAFEEETVKLSKQRVEQRVAMLNSWKSSVPLHTDTTRPLPGAARRQKEKDEPAAKHINLQILDEDAALKRERRALLRADILQQKKDREEYLAKWRANEKAYDSALLATNAEFARQMQEQERQAAVATKQYMDMMRASNLKELEAKRAKQREKEEADVAALRTMQENLRLKMEADERRAKDMKRLMQIENEENHSLFKKKQAEDKAREDAWIRTMMEHNAALAERERREAEQKRQQFKADFEDTIAKQKEFRRTHDYDEPQELIRKRNEEAAASAVLIRQEERLRNNEQRKQYREELMKQMREKYEWQLSHLDGV” the “soluble on expression in E. coli” value was “not soluble”.
In the case of “MAHHHHHHMPPLLTEVKPAGYRPQLRVCYLCGQQFGSASIGIHVPQCYQKKLSQWEVTDPAVRGPKPKHPDMVKWKGGNGASVEAINREQYQEFNSQLVACPHCARTFLPDRLPVHLRGCRGDGKVGVPSSKAKADGGGGSTPGGGKHKSEPRRAAGCRSLSPGPPLLPTCYLCGQQFGTASIGIHVPQCYEKKLAQWQNADPHSRGHPPKHPDTVNWRGRPGASPREQAEEQFQEFMNNLEECPNCSRRFLPERLVVHLRSCRPDNPPKPTSPRKAKTGGGARCPTPTTATTPADTAATKASIGGQTPRSEKQQRKQEPPTSSAGEDWIHPKRNRLTRHSTLPTESRVCPQCDAVEYDADAKFCRDCGHNFVPKPLSNSCQHCGERIPHGSRFCGTCGQPVQGASAHELTPGGPNKHASTVRRVVCPACEAISDADGNFCDNCGAALGDADLTPAPAAAGAAATPPSTRAGGSTEHKAVLYCAKCKETVEDTTAVFCEDCGGRLEALKVLTTKDDGPPLRADGTLPPSDVARLKVARASTPQRPSASEPAKTVTTPVASSVAPARPQTRNACTPIEEHTDEFPAYAEDDLVRVPCSHCGRQFASESLAKHERICCSQKKRRVFNATKQRLPEGATAAAKPSAGSQPAAPKRDWKAESESFRRALREARQVDQVLKAGGTAKDLPPPTYSTNPDYVPCPHCQRRFAPDVAARHIPRCANTVNRPKPPPRRR”, the “soluble on expression in E. coli” value is reported as “soluble”.
For “MAHHHHHHMPRVQLFIDNGGYSVKALYLPASADTSNRSAATHASALTSSSTHGEAAATAATVAPAPKVLVVPNCVGAAVYAGTGIMGDQLDHLPHYHGLMVRRPVDRGFVVDGGLQARVWEHVLQHFSIESEEEVDVWLVVPFAAPKAVAQLLWLLCTRSFRFGSVTVVSSSFMSLIAYKFARGASAPSSAARKRPRSTVDTDAQESPGCSGSSATGGGMAIMVDVGFSATTVVPYVNYIPVYSSVVRLDVGGKVLTNRLKEYISFSQMNVIEDTWLINHVKEQCCVVARHPRRSLQRYAALWKGRTRDEVEAAAGALSTLRREDGGSGDGQASRSQRPGAPVAGVLTSPDVPIRYYLPTIPALLPLGVLEAELPSRLPKTSGVDAAALQHLLLCQERFLIPELLFTPADVGINQQGVAQAITEGIFQRGLLQHLTKLLRPLLLHNVCVYGGTASQPNFRDRLEAEVAAVAPQSPDCDADLDLKDSKRSSSSSRHGATEACADRTTCLSATPALPEFLLKAGGASTDLSLQPLLGAWCLLSATVDSGSNGGASQRELLRLRALVHERSGIELQHPPAGRVTVETFQHALERML”, the “soluble on expression in E. coli” value was “not soluble”.
In the case of “MAHHHHHHMPSMDSLRTAVDNAPLLVNLLRLIRNARSPNYKDHEKGPVTFHFGGLSMRDTGSYEAAEELWRQSSWSSGALAPNAAGPFRGPLHLVVYLNHSPVEVWTLQDYREPATDHSVPRDFEQLEALNTLVRVLFAHLRCQDIYGVVLQSCVTATDDANNHFPASPNGNVSSPPHFPPPRNASLSRARTPHSPANHVSLRLFRSAEDCPTMPVHARRQYLWSSDDFVRVDVTMDRTWRHHSWVQPGTQAASPVLAAGDRERDTAVCAAGERSSPIRTASPGLRHFGSEGDTRSQSISPEAMGSLDKSSLPTPYLAPAATLALSSHLSRSPRTNLSPLMPGSRLSPAQGVSEFALPPADVSSPFDCDRSRQSRSSPPIMHSCVFASSHPAGGGGATYTAAVGAVNQVEDAVWLSNAEHVRRMGTLVCSRKQSPSASSSPVMGKKPRNSFISQKHEMGSLVPSISIGALSGIGFDRRLLSSDVDLEDLAAETASSGSSASVPNSAAMEQLVSLLGLCSKVKLQHVPSAPFGDLVLSLNLREVP”, the “soluble on expression in E. coli” value is reported as “not soluble”.
For “MAHHHHHHMPSPQSLTGTPRSLQHAPLPAQVVRDALPLRRDVSDLLPVEQLRVLHVLTIAGMPRPHNTHSATISCRLSSPIMSATPNAYWRTCSMRCISVPSLCLEQTLPSSQSTAWMPREAADRSSVCGRSKCAETTATLTPSDISTHSTLPHKRAVPWEREVRRTVLA”, the “soluble on expression in E. coli” value was “not soluble”.
With “MAHHHHHHMPSSPFPTLPTRATQHHHHCSHTRVHQICPAVPSLSALSNILTVSAMSAKTAAAPSERSFVDRFVRSHAGAATAAGILEIGFFHPFDTIAKRLMANKGSIMRGSTGET” the “soluble on expression in E. coli” value was “soluble”.
For “MAHHHHHHMQQRKTNKLFYPVAFLHFFLGEDNERRMFRRLSTSTLAAAAVRFYTPSESLKKLYTSDFDKTEFPLSIVPSDSVLFAKFLYKAAEPNNSFDAILKDFQTIAAASSSLPIFWERTAVVEDVAEFKKLSEPMFFTLVWMQKNGMLDLIPEVSEIYETYVNAKMKRIVAKIYVAPGKEGEVGEAKRVAQELHKEAKELDGYTLVFKTVVDRSIVTGFAVELAGQYVNRAEGHKSHAPAADEADYTTIPAPRLPKTVWEDNIETEVLCRYLESLAEYDAEEAKHGV”, the “soluble on expression in E. coli” value was “not soluble”.
With “MAHHHHHHMQSDARELNPGRADFWEHFYDQEDGRLRQKELHHRKAHEIVERGSLMNHYEWFMQYAMYEAALKACLRAVPTVLSKDGATRILHMGCGNSDFCDHVEGLLSDLHPVPSSSSRASEVLNVDICESIVAHLALHFPSRLYAVGNCCDLHVSSSPSMPFSSNAAWYSRDPALRLRKVLQSSVDVVFDKGTADALLSSFAGEYNPNMEAYMGEALKVLRPGGLLFLISINSEDVLSPYALSADDGLKSFHLAYTDVIELGAHDLRHLRVETLGSRYSCYGYAVVASAVAE” the “soluble on expression in E. coli” value was “soluble”.
For “MAHHHHHHMQTNYNEIRNLFNYYIREYFYQKSKGSYFVHFKKPGILFMSLKCYKRKKMYYPCIYDWYFDNLNNVKKNKDIFQYKNEYNTKNIYSHKICTEKENLGKNNSYVETDNIYLNKSEENLQNIYKSSNLYYNINPIYLSKICLYNLNEYHILYSNNYYDAFTQYYYSLISYKMDVHNMKIFPNLKILISHIKNISNIINDEVIKNAYIYLIKQRNIMNEEYLKNVFRNIYTTMLHNSSLYLFVDNHDQFIMILKIIKTDDIKSMFESAIPYPYYLIVDENINIYNLQSFNIYINSILNQRMQYNYPYNEKEKGSILNHYNNDKMYMTYNNNINQSKDIKIEKQTEQNEKGFNSMLDTDKGVYEKNIIKDKNDKVYFFKFIKIFDMKPNYRFKQKK”, the “soluble on expression in E. coli” value was “not soluble”.
For “MAHHHHHHMRCHVMGPSGHKSEYHCATLLGNWQEERRSFGFVDPAREPLSYMTVYKDSFRGTKTDEELANAKPPSCFHENALPELLFYHNEITNPPKNLLTVNELSYTNAKGGEEVNTLHDILHKEGVSKKRDKTIAIRRELGFIGYGAPHEGSLLASKGATATPLDYTMRCGTTTDQNFLESTRGGCYKPPVIPAIGRMQEKQRLLTTKNVTVDATGEYLKDNIDEYPATSSECWGMFMKFTDNMKGKKLRECYED”, the “soluble on expression in E. coli” value was “not soluble”.

Reference: the DeepSol protein solubility set
